Source: patent publication US20230058519A1 (SHANGHAI CELL THERAPY GROUP, published 2023)

Key:
EGFR expressed on cells [1] = target: T1, EGFR expressed on cells (UniProt P00533 25-1210, limits assumed); assay: flow cytometry on 293T-EGFR cells; unit taken from the axis 'Conc.(nM)'
T1 construct: whole, on cells; also called HEK293T-EGFR cell line; EGFR over-expressing cells

[2] = target: mesothelin (MSLN) expressed on cells (UniProt Q13421); assay: flow cytometry on 293T-MSLN-Full cells; unit taken from the axis 'Conc.(nM)'
Chain of mesothelin (MSLN) expressed on cells (Q13421 other isoform, or with tags, fused parts or gaps limits assumed): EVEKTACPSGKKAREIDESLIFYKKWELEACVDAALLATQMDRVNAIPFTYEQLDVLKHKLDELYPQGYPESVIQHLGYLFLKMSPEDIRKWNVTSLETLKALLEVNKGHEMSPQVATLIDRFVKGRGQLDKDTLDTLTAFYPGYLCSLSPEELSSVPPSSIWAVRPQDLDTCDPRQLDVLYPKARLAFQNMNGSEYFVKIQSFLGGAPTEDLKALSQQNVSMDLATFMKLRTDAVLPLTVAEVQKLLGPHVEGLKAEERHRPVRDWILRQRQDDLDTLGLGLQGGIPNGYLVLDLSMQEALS

BCMA expressed on cells = target: T2, BCMA expressed on cells (UniProt Q02223 1-184, limits assumed); assay: flow cytometry on CHOK1-BCMA cells; unit taken from the axis 'Concentration (nM)'
T2 construct: whole, on cells; also called CHOK1-BCMA cell line; BCMA over-expression cell line
T2 sequence (looked up): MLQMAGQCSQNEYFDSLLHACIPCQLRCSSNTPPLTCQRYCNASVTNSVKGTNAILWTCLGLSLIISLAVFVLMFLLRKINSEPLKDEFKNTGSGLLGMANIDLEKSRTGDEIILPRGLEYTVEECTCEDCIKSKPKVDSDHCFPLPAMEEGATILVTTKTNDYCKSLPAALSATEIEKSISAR

BCMA-His antigen = target: T3, BCMA-His antigen (UniProt Q02223 1-54); assay: SPR as in Example 2, BCMA-His antigen
T3 construct: also called BMCA antigen
T3 sequence (looked up): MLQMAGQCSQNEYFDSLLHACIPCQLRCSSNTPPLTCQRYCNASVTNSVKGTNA

EGFR expressed on cells [3] = target: T1, EGFR expressed on cells; assay: flow cytometry on HEK293T-EGFR cells (cell line from paragraph 185); unit taken from the axis 'Concentration (nM)'
EGFR His antigen = EGFR His antigen (UniProt P00533 25-645); assay: SPR as in Example 2, EGFR His antigen

B1: TCP021-P (bispecific antibody)
chain: QLQLGASGGGLVQPGGSLRLSCALSGFTLRELDEFAIGWFRQAPGKEREGVSCISGTGGITHYADSVKGRFTISRDIAKTTVYLQMNSLNSEDTAVYYCAADERCTDRLIRPPTYWGQGTQVTVSSGGGGSGGGGSGGGGSQVQLVESGGGLVQPGGSLNLSCAASGFDFSSVTMSWHRQSPGKERETVAVISNIGNRNVGSSVRGRFTISRDNKKQTVHLQMDNLKPEDTGIYRCKAWGLDLWGPGTQVTVSSGGGGSEQKLISEEDLGGGGSHHHHHH
notes: also called EGFR-TCP; anti-M-ICAP VHH (M2339) - 3xGGGGS linker - anti-EGFR VHH (E454(VHH)) - Myc and HIS
EC50 (EGFR expressed on cells [1]): 28.6 nM
EC50 [2]: 35.6 nM

B2: B029(VHH), hFc fusion (Fc fusion)
chain: QVQLVESGGGLVQPGGSLRLSCAASGSITSIYAIGWYRQAPGKLRELVAAITTSGNTFYRDSVKGRFTISRDNAKNTVSLQMNSLKSEDTAVYDCNGAPWGDHAPLVVSWDQGTQVTVSS
notes: not shown: human Fc
EC50 (BCMA expressed on cells): 1.68 nM
Kd (BCMA-His antigen): 0.125 nM
koff (BCMA-His antigen): 0.000365 s⁻¹
kon (BCMA-His antigen): 2.92e+06 M⁻¹ s⁻¹

B3: E454(VHH), hFc fusion (Fc fusion)
chain: QVQLVESGGGLVQPGGSLNLSCAASGFDFSSVTMSWHRQSPGKERETVAVISNIGNRNVGSSVRGRFTISRDNKKQTVHLQMDNLKPEDTGIYRCKAWGLDLWGPGTQVTVSS
notes: also called anti-EGFR VHH (E454(VHH)); not shown: human Fc
EC50 (EGFR expressed on cells [3]): 6.51 nM
Kd (EGFR His antigen): 1.27 nM
koff (EGFR His antigen): 2.48e-05 s⁻¹
kon (EGFR His antigen): 19500 M⁻¹ s⁻¹
